Measured values as given in patent publication US20190381086.

Target: Ubc12^N8 made with wild type Ubc12 (thioester-linked to NEDD8), purified, P61081
Sequence (P61081 whole entry, looked up): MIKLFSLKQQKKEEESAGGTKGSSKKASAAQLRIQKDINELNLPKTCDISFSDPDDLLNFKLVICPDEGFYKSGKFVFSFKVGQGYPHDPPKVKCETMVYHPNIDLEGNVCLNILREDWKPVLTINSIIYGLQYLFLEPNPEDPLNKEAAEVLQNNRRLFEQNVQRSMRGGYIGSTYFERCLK

B1: full-length human GlyRS (protein)
chain: MDGAGAEEVLAPLRLAVRQQGDLVRKLKEDKAPQVDVDKAVAELKARKRVLEAKELALQPKDDIVDRAKMEDTLKRRFFYDQAFAIYGGVSGLYDFGPVGCALKNNIIQTWRQHFIQEEQILEIDCTMLTPEPVLKTSGHVDKFADFMVKDVKNGECFRADHLLKAHLQKLMSDKKCSVEKKSEMESVLAQLDNYGQQELADLFVNYNVKSPITGNDLSPPVSFNLMFKTFIGPGGNMPGYLRPETAQGIFLNFKRLLEFNQGKLPFAAAQIGNSFRNEISPRSGLIRVREFTMAEIEHFVDPSEKDHPKFQNVADLHLYLYSAKAQVSGQSARKMRLGDAVEQGVINNTVLGYFIGRIYLYLTKVGISPDKLRFRQHMENEMAHYACDCWDAESKTSYGWIEIVGCADRSCYDLSCHARATKVPLVAEKPLKEPKTVNVVQFEPSKGAIGKAYKKDAKLVMEYLAICDECYITEMEMLLNEKGEFTIETEGKTFQLTKDMINVKRFQKTLYVEEVVPNVIEPSFGLGRIMYTVFEHTFHVREGDEQRTFFSFPAVVAPFKCSVLPLSQNQEFMPFVKELSEALTRHGVSHKVDDSSGSIGRRYARTDEIGVAFGVTIDFDTVNKTPHTATLRDRDSMRQIRAEISELPSIVQDLANGNITWADVEARYPLFEGQETGKKETIEE
stability (half-life) of Ubc12^N8 in vitro at 37°, SDS-PAGE: In the presence of GlyRS, but not BSA, Ubc12^N8 was significantly more stable than in the absence of GlyRS
